Target: recombinant full-length human Tau (human) (UniProt P10636)
Test: indirect ELISA, Tau coated on the plate

EC50: 15 nM
B1: NI-502.4P3 (antibody, V domains shown)
VH: EVQLVQSGAEVKKPGESLKISCKVSGYDFSKYWIGWVRQMPGKGLEWMGLIYPGDSDTRYSPSLEGQVSISADKSISAAYLQFSSLKASDSAMYYCVRKGYSAYLGGWFDPWGQGTLVTVSS
VL: DIQLTQSPDSLAASLGERVTINCRSSQNIFYNSNNKNFLAWYQQKAGQSPKLLIYWASTRESGVPDRFSGSGSGTDFTLTISGLQAGDVAVYFCQQYFTDAPTFGGGTKVEIK

Reference: patent US20240309076A1
